Measured values from the supplement of paper PMC9112550, “Optimization of the antimicrobial peptide Bac7 by deep mutational scanning” (BMC Biology, 2022).

System: Escherichia coli TOP10
Assay: shrunken log2 fold change of peptide-encoding DNA abundance (4.5 h post-induction vs induction); higher = less antimicrobial activity (less host growth inhibition)
Conditions: time post-induction: 4.5 h; library: site-saturation at positions 5, 18, 19, 20
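Also: peptides expressed intracellularly from a pBAD plasmid library in pooled LB shake-flask culture, induced with 0.3% L-arabinose, DNA abundance read by NGS, three biological replicates, DESeq2 with apeglm shrinkage.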

Q: With RRIRRRPPRLPRPRPRPQESPRP as the sequence, how does the “shrunken log2 fold change” value read?
A: Its value is -0.131.

Q: RRIRLRPPRLPRPRPRPYFFPRP was tested. Which “shrunken log2 fold change” value did it give?
A: The value was -0.45.

Q: How did the “shrunken log2 fold change” value turn out when RRIRCRPPRLPRPRPRPEYNPRP was run?
A: Its value is -0.243.

Q: How did the “shrunken log2 fold change” value turn out when RRIRCRPPRLPRPRPRPQLQPRP was run?
A: The value was 0.0481.

Q: How did the “shrunken log2 fold change” value turn out when RRIRERPPRLPRPRPRPPSKPRP was run?
A: The value was -0.197.

Q: With RRIRKRPPRLPRPRPRPGHHPRP as the sequence, how does the “shrunken log2 fold change” value read?
A: Its value is 0.228.

Q: With RRIRPRPPRLPRPRPRPMQMPRP as the sequence, how does the “shrunken log2 fold change” value read?
A: Its value is 0.00304.

Q: RRIRSRPPRLPRPRPRPTFCPRP was tested. Which “shrunken log2 fold change” value did it give?
A: The value was 0.155.

Q: Which “shrunken log2 fold change” value does the source give for RRIRMRPPRLPRPRPRPIKIPRP here?
A: Its value is -0.0554.

Q: For RRIRDRPPRLPRPRPRPTHDPRP, which “shrunken log2 fold change” value is on record?
A: Its value is 0.666.

Q: How did the “shrunken log2 fold change” value turn out when RRIRIRPPRLPRPRPRPLQEPRP was run?
A: The value was -0.0919.

Q: RRIRNRPPRLPRPRPRPPRVPRP was tested. Which “shrunken log2 fold change” value did it give?
A: The value was 0.379.

Q: RRIRGRPPRLPRPRPRPDRFPRP was tested. Which “shrunken log2 fold change” value did it give?
A: Its value is 0.375.

Q: RRIRLRPPRLPRPRPRPAGYPRP was tested. Which “shrunken log2 fold change” value did it give?
A: Its value is -0.0817.

Q: For RRIRNRPPRLPRPRPRPFFAPRP, which “shrunken log2 fold change” value is on record?
A: Its value is 0.201.

Q: With RRIRNRPPRLPRPRPRPHYSPRP as the sequence, how does the “shrunken log2 fold change” value read?
A: The value was -0.363.

Q: How did the “shrunken log2 fold change” value turn out when RRIRCRPPRLPRPRPRPLGPPRP was run?
A: Its value is 0.106.

Q: With RRIRVRPPRLPRPRPRPVICPRP as the sequence, how does the “shrunken log2 fold change” value read?
A: Its value is -0.0928.

Q: With RRIRLRPPRLPRPRPRPFAMPRP as the sequence, how does the “shrunken log2 fold change” value read?
A: The value was -0.407.

Q: Which “shrunken log2 fold change” value does the source give for RRIRRRPPRLPRPRPRPANRPRP here?
A: Its value is -0.0151.

Q: RRIRVRPPRLPRPRPRPCACPRP was tested. Which “shrunken log2 fold change” value did it give?
A: Its value is 0.0537.

Q: RRIRARPPRLPRPRPRPTSMPRP was tested. Which “shrunken log2 fold change” value did it give?
A: Its value is 0.127.

Q: RRIRNRPPRLPRPRPRPHDEPRP was tested. Which “shrunken log2 fold change” value did it give?
A: Its value is -0.103.

Q: With RRIRDRPPRLPRPRPRPVRHPRP as the sequence, how does the “shrunken log2 fold change” value read?
A: Its value is 0.646.

Q: RRIRNRPPRLPRPRPRPRMTPRP was tested. Which “shrunken log2 fold change” value did it give?
A: The value was 0.259.

Q: For RRIRFRPPRLPRPRPRPENWPRP, which “shrunken log2 fold change” value is on record?
A: The value was 0.0986.

Q: For RRIRRRPPRLPRPRPRPIPDPRP, which “shrunken log2 fold change” value is on record?
A: Its value is 0.277.

Q: How did the “shrunken log2 fold change” value turn out when RRIRWRPPRLPRPRPRPVCWPRP was run?
A: Its value is 0.758.

Q: With RRIRMRPPRLPRPRPRPNWHPRP as the sequence, how does the “shrunken log2 fold change” value read?
A: Its value is -0.0297.

Q: With RRIRYRPPRLPRPRPRPKDHPRP as the sequence, how does the “shrunken log2 fold change” value read?
A: The value was -0.487.

Q: Which “shrunken log2 fold change” value does the source give for RRIRDRPPRLPRPRPRPVNKPRP here?
A: Its value is -0.0502.

Q: Which “shrunken log2 fold change” value does the source give for RRIRSRPPRLPRPRPRPMQQPRP here?
A: Its value is 0.178.

Q: How did the “shrunken log2 fold change” value turn out when RRIRERPPRLPRPRPRPTNCPRP was run?
A: Its value is -0.165.

Q: With RRIRQRPPRLPRPRPRPPGDPRP as the sequence, how does the “shrunken log2 fold change” value read?
A: The value was 0.194.

Q: How did the “shrunken log2 fold change” value turn out when RRIRRRPPRLPRPRPRPLIHPRP was run?
A: The value was 0.125.

Q: How did the “shrunken log2 fold change” value turn out when RRIRMRPPRLPRPRPRPPNIPRP was run?
A: Its value is -0.113.

Q: How did the “shrunken log2 fold change” value turn out when RRIRSRPPRLPRPRPRPICVPRP was run?
A: Its value is -0.111.

Q: RRIRHRPPRLPRPRPRPHTHPRP was tested. Which “shrunken log2 fold change” value did it give?
A: Its value is -0.725.

Q: How did the “shrunken log2 fold change” value turn out when RRIRVRPPRLPRPRPRPGRMPRP was run?
A: The value was 0.172.

Q: With RRIRRRPPRLPRPRPRPVWFPRP as the sequence, how does the “shrunken log2 fold change” value read?
A: Its value is 0.0857.

Q: For RRIRKRPPRLPRPRPRPKHQPRP, which “shrunken log2 fold change” value is on record?
A: The value was 0.132.

Q: Which “shrunken log2 fold change” value does the source give for RRIRTRPPRLPRPRPRPEIQPRP here?
A: Its value is -0.00275.

Q: RRIRLRPPRLPRPRPRPMEEPRP was tested. Which “shrunken log2 fold change” value did it give?
A: The value was 0.156.

Q: RRIRYRPPRLPRPRPRPKYLPRP was tested. Which “shrunken log2 fold change” value did it give?
A: Its value is 0.00379.

Q: Which “shrunken log2 fold change” value does the source give for RRIRVRPPRLPRPRPRPRCDPRP here?
A: The value was -0.0186.

Q: Which “shrunken log2 fold change” value does the source give for RRIRTRPPRLPRPRPRPSAKPRP here?
A: The value was 0.227.

Q: Which “shrunken log2 fold change” value does the source give for RRIRQRPPRLPRPRPRPKGIPRP here?
A: Its value is 0.0655.

Q: With RRIRYRPPRLPRPRPRPEYGPRP as the sequence, how does the “shrunken log2 fold change” value read?
A: The value was -0.249.

Q: Which “shrunken log2 fold change” value does the source give for RRIRNRPPRLPRPRPRPLCLPRP here?
A: Its value is -0.311.

Q: For RRIRSRPPRLPRPRPRPNVSPRP, which “shrunken log2 fold change” value is on record?
A: The value was -0.0656.

Q: With RRIRVRPPRLPRPRPRPMGCPRP as the sequence, how does the “shrunken log2 fold change” value read?
A: Its value is 0.0117.

Q: With RRIRYRPPRLPRPRPRPDCGPRP as the sequence, how does the “shrunken log2 fold change” value read?
A: The value was -0.398.

Q: How did the “shrunken log2 fold change” value turn out when RRIRQRPPRLPRPRPRPLIKPRP was run?
A: Its value is -0.249.

Q: Which “shrunken log2 fold change” value does the source give for RRIRIRPPRLPRPRPRPPKAPRP here?
A: Its value is -0.0729.

Q: With RRIRRRPPRLPRPRPRPWSYPRP as the sequence, how does the “shrunken log2 fold change” value read?
A: The value was -0.573.

Q: RRIRHRPPRLPRPRPRPGRKPRP was tested. Which “shrunken log2 fold change” value did it give?
A: The value was 0.00144.

Q: For RRIRNRPPRLPRPRPRPDQMPRP, which “shrunken log2 fold change” value is on record?
A: Its value is 0.0898.

Q: With RRIRWRPPRLPRPRPRPHQGPRP as the sequence, how does the “shrunken log2 fold change” value read?
A: Its value is 0.0993.

Q: With RRIRFRPPRLPRPRPRPRGNPRP as the sequence, how does the “shrunken log2 fold change” value read?
A: The value was -0.0828.

Q: RRIRARPPRLPRPRPRPVTHPRP was tested. Which “shrunken log2 fold change” value did it give?
A: The value was 0.105.

Q: With RRIRMRPPRLPRPRPRPAEMPRP as the sequence, how does the “shrunken log2 fold change” value read?
A: Its value is 0.0981.

Q: RRIRVRPPRLPRPRPRPYMEPRP was tested. Which “shrunken log2 fold change” value did it give?
A: The value was -0.16.

Q: RRIRLRPPRLPRPRPRPMKTPRP was tested. Which “shrunken log2 fold change” value did it give?
A: The value was -0.034.

Q: For RRIRQRPPRLPRPRPRPVHFPRP, which “shrunken log2 fold change” value is on record?
A: Its value is -0.00916.

Q: With RRIRFRPPRLPRPRPRPQCKPRP as the sequence, how does the “shrunken log2 fold change” value read?
A: Its value is -0.422.

Q: RRIRVRPPRLPRPRPRPVFVPRP was tested. Which “shrunken log2 fold change” value did it give?
A: Its value is -0.0229.

Q: Which “shrunken log2 fold change” value does the source give for RRIRLRPPRLPRPRPRPLNFPRP here?
A: The value was -0.268.

Q: Which “shrunken log2 fold change” value does the source give for RRIRYRPPRLPRPRPRPFTMPRP here?
A: Its value is -0.558.

Q: With RRIRHRPPRLPRPRPRPGGLPRP as the sequence, how does the “shrunken log2 fold change” value read?
A: The value was 0.117.

Q: How did the “shrunken log2 fold change” value turn out when RRIRSRPPRLPRPRPRPYLVPRP was run?
A: The value was -0.123.

Q: With RRIRNRPPRLPRPRPRPQNFPRP as the sequence, how does the “shrunken log2 fold change” value read?
A: The value was 0.0364.

Q: How did the “shrunken log2 fold change” value turn out when RRIRQRPPRLPRPRPRPSWVPRP was run?
A: Its value is -0.0385.

Q: How did the “shrunken log2 fold change” value turn out when RRIRCRPPRLPRPRPRPGMIPRP was run?
A: Its value is -0.0447.

Q: RRIRTRPPRLPRPRPRPAYKPRP was tested. Which “shrunken log2 fold change” value did it give?
A: The value was 0.0328.

Q: With RRIRCRPPRLPRPRPRPPDWPRP as the sequence, how does the “shrunken log2 fold change” value read?
A: The value was 0.416.
